Laboratory results reported in publication PMC2783421 (Developmental biology, 2009).
Substitutions are numbered along the chain they refer to. Names may count otherwise.

T1: His6-tagged ERK2 (Dictyostelium discoideum, UniProt Q54QB1 1-369)
T1 sequence (looked up): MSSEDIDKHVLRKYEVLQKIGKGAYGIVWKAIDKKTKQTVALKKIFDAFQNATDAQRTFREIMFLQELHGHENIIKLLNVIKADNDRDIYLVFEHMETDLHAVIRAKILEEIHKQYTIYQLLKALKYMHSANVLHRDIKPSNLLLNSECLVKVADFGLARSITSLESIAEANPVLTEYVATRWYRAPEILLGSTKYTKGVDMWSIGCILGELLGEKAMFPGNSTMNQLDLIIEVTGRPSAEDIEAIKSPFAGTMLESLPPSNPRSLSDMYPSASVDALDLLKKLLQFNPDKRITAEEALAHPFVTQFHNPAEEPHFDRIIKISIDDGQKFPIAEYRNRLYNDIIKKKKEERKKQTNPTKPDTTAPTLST

B1: Myc-tagged Gα4 subunit (wild type) (natural protein, Dictyostelium discoideum, UniProt P34042 1-345, looked up)
chain: MRFKCFGSEETEQSSKIDKSIETDRRKLRKDVKLLLLGPGESGKSTIFKQMKIIQEDGGYSVEELLEYRAFVYSNCISQMEALLTASAKLNIELEVENKQRAANVLRRTIGNEPWLLLAADIKHLWEDKGIKETYAQKDKHFQLNDSAAYFFDNIDRYMREDFVPNEQDVLRCRVRTTGIQESEFTFDKIRLKIVDVGGQRSQRRKWIHCFDCVTAVIFVAAMSDYDQVLREDESVNRTRESLALFKEIVNCDYFKETPIVLFLNKKDLFKEKLKRVPLQSCFSDYTGPNKYKDAAMFIQSQYLAQGPSPRTIYTHATCAVDTENIKFVFRAVRQTILSQALEHF
B2: Myc-tagged Gα4^R107E,R108E subunit (altered D-motif) (natural protein, Dictyostelium discoideum, UniProt P34042 1-345, looked up)
chain: B1 chain with R107E, R108E
B3: Myc-tagged constitutively active Gα4^Q200L subunit (natural protein, Dictyostelium discoideum, UniProt P34042 1-345, looked up)
chain: B1 chain with Q200L
B4: Myc-tagged Gα4^(R107E, R108E, Q200L) subunit (natural protein, Dictyostelium discoideum, UniProt P34042 1-345, looked up)
chain: B1 chain with R107E, R108E, Q200L

Target: T1, His6-tagged ERK2
Assay: pull-down

| pull-down yield (percent of the cell extract) [%] | Binder |
| --- | --- |
| ~22 | B1 |
| ~9 | B2 |
| ~9 | B3 |
| ~4 | B4 |
